In article doi:10.1101/2022.01.19.476979 (bioRxiv, 2022):

How the values were obtained:
[1] = target: T1, FHH-tagged Siah1, recombinant purified (UniProt Q8IUQ4 1-282, RED-tris-NTA 2nd generation dye (Monolith His-Tag labeling kit)); test: MST
T1 sequence (looked up): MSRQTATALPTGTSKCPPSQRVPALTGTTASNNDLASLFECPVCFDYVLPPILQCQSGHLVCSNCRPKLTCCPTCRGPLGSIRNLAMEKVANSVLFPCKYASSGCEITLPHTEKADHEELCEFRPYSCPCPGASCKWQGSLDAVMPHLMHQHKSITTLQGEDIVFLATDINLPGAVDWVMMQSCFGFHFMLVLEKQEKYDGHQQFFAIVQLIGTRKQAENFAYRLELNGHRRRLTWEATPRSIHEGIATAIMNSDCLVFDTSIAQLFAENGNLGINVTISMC

[2] = target: FHH-tagged MAB21L4, recombinant purified (human, UniProt Q08AI8 1-447, RED-tris-NTA 2nd generation dye (Monolith His-Tag labeling kit)); test: MST
Chain of FHH-tagged MAB21L4, recombinant purified (Q08AI8 whole entry): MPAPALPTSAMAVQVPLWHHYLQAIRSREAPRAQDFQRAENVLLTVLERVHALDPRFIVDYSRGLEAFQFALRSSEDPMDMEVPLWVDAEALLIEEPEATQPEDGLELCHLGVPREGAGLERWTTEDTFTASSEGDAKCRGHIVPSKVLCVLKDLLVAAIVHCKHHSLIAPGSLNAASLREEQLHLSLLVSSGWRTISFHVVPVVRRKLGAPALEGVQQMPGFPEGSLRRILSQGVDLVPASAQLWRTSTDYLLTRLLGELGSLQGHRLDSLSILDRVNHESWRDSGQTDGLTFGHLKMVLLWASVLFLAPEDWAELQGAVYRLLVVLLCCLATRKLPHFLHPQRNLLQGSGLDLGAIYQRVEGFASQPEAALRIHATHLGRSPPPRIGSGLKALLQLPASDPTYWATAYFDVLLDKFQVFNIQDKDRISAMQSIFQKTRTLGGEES

Kd [1]: 9.8 µM
Kd [2]: 2.1 µM
B1: n-terminus FLAG-tagged CacyBP, recombinant purified (natural protein, UniProt Q9HB71 1-228, looked up)
chain: MASEELQKDLEEVKVLLEKATRKRVRDALTAEKSKIETEIKNKMQQKSQKKAELLDNEKPAAVVAPITTGYTVKISNYGWDQSDKFVKIYITLTGVHQVPTENVQVHFTERSFDLLVKNLNGKSYSMIVNNLLKPISVEGSSKKVKTDTVLILCRKKVENTRWDYLTQVEKECKEKEKPSYDTETDPSEGLMNVLKKIYEDGDDDMKRTINKAWVESREKQAKGDTEF
